Target: KSS-1::Strep (C. tropicalis)
Assay: SEC-MALS

Substance: SKR-1 (untagged) (natural protein)
- stoichiometry N: 1

Source: paper doi:10.1101/2024.09.16.613340
